From patent publication US20150203577A1 (Chugai, published 2015)

T1: mouse FcγRII extracellular domain, C-terminal His tag (mouse, UniProt P08101 30-210)
T1 construct: also called mFcγRII; mFcgRII
T1 sequence: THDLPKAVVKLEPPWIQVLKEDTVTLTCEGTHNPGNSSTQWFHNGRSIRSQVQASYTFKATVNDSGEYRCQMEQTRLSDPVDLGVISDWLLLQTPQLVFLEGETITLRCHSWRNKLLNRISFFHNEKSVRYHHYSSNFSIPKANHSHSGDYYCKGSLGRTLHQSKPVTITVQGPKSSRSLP

T2: mouse FcγRIII extracellular domain, C-terminal His tag (mouse, UniProt P08508 31-215)
T2 construct: also called mFcγRIII; mFcgRIII
T2 chain: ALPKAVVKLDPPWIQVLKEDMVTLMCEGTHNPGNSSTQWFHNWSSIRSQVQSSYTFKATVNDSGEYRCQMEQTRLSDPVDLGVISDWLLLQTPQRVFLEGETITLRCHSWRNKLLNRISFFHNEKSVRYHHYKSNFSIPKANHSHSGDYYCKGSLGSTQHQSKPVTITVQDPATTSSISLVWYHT


What was measured:
[1] = target: T1, mouse FcγRII extracellular domain, …; test: SPR (Biacore T200), antibody captured on Protein L, mFcγR analyte
[2] = target: T2, mouse FcγRIII extracellular domain, …; test: as above

Kd [1] | relative mFcγRII-binding activity (mIgG1 = 1) [1] | Kd [2] | relative mFcγRIII-binding activity (mIgG1 = 1) [2] | Binder
11.4 nM | 18.5 fold vs H237-mIgG1/MRAL-k0 | 829 nM | 0.3 fold vs H237-mIgG1/MRAL-k0 | H237-MB826/MRAL-k0 (antibody, mouse IgG1, kappa, copies: 2 + 2) heavy: QVQLQESGPGLVKPSETLSLTCAVSGHSISHDHAWSWVRQPPGEGLEWIGFISYSGITNYNPSLQGRVTISRDNSKNTLYLQMNSLRAEDTAVYYCARSLARTTAMDYWGEGTLVTVSSAKTTPPSVYPLAPGSAAQTNSMVTLGCLVKGYFPEPVTVTWNSGSLSSGVHTFPAVLQSDLYTLSSSVTVPSSTWPSETVTCNVAHPASSTKVDKKIVPRDCGCKPCICEPNEVELVFIFPPKPKDVLTITLTPKVTCVVVDISKDDPEVQFSWFVDDVEVHTAQTQPREEQFNSTFRSVSELPIMHQDWLNGKEFKCRVNSAGFPAFIEKTISKTKGRPKAPQVYTIPPPKEQMAKDKVSLTCMITDFFPEDITVEWQWNGQPAENYKNTQPIMDTDGSYFVYSKLNVQKSNWEAGNTFTCSVLHEGLHNHHTEKSLSHSPGK light: not shown
9.77 nM | 21.5 fold vs H237-mIgG1/MRAL-k0 | 744 nM | 0.4 fold vs H237-mIgG1/MRAL-k0 | H237-MB827/MRAL-k0 (antibody, mouse IgG1, kappa, copies: 2 + 2) heavy: QVQLQESGPGLVKPSETLSLTCAVSGHSISHDHAWSWVRQPPGEGLEWIGFISYSGITNYNPSLQGRVTISRDNSKNTLYLQMNSLRAEDTAVYYCARSLARTTAMDYWGEGTLVTVSSAKTTPPSVYPLAPGSAAQTNSMVTLGCLVKGYFPEPVTVTWNSGSLSSGVHTFPAVLQSDLYTLSSSVTVPSSTWPSETVTCNVAHPASSTKVDKKIVPRDCGCKPCICEPNEVELVFIFPPKPKDVLTITLTPKVTCVVVDISKDDPEVQFSWFVDDVEVHTAQTQPREEQFNSTFRSVSELPIMHQDWLNGKEFKCRVNSAGFPAYIEKTISKTKGRPKAPQVYTIPPPKEQMAKDKVSLTCMITDFFPEDITVEWQWNGQPAENYKNTQPIMDTDGSYFVYSKLNVQKSNWEAGNTFTCSVLHEGLHNHHTEKSLSHSPGK light: not shown
7.4 nM | 28.4 fold vs H237-mIgG1/MRAL-k0 | 571 nM | 0.5 fold vs H237-mIgG1/MRAL-k0 | H237-MB828/MRAL-k0 (antibody, mouse IgG1, kappa, copies: 2 + 2) heavy: QVQLQESGPGLVKPSETLSLTCAVSGHSISHDHAWSWVRQPPGEGLEWIGFISYSGITNYNPSLQGRVTISRDNSKNTLYLQMNSLRAEDTAVYYCARSLARTTAMDYWGEGTLVTVSSAKTTPPSVYPLAPGSAAQTNSMVTLGCLVKGYFPEPVTVTWNSGSLSSGVHTFPAVLQSDLYTLSSSVTVPSSTWPSETVTCNVAHPASSTKVDKKIVPRDCGCKPCICEPNEVELVFIFPPKPKDVLTITLTPKVTCVVVDISKDDPEVQFSWFVDDVEVHTAQTQPREEQFNSTFRSVSELPIMHQDWLNGKEFKCRVNSAGFPAPIYKTISKTKGRPKAPQVYTIPPPKEQMAKDKVSLTCMITDFFPEDITVEWQWNGQPAENYKNTQPIMDTDGSYFVYSKLNVQKSNWEAGNTFTCSVLHEGLHNHHTEKSLSHSPGK light: not shown
8.31 nM | 25.3 fold vs H237-mIgG1/MRAL-k0 | 630 nM | 0.4 fold vs H237-mIgG1/MRAL-k0 | H237-MB833/MRAL-k0 (antibody, mouse IgG1, kappa, copies: 2 + 2) heavy: QVQLQESGPGLVKPSETLSLTCAVSGHSISHDHAWSWVRQPPGEGLEWIGFISYSGITNYNPSLQGRVTISRDNSKNTLYLQMNSLRAEDTAVYYCARSLARTTAMDYWGEGTLVTVSSAKTTPPSVYPLAPGSAAQTNSMVTLGCLVKGYFPEPVTVTWNSGSLSSGVHTFPAVLQSDLYTLSSSVTVPSSTWPSETVTCNVAHPASSTKVDKKIVPRDCGCKPCICEPNEVELVFIFPPKPKDVLTITLTPKVTCVVVDISKDDPEVQFSWFVDDVEVHTAQTQPREEQFNSTFRSVSELPIMHQDWLNGKEFKCRVNSAAFPAYIERTISKTKGRPKAPQVYTIPPPKEQMAKDKVSLTCMITDFFPEDITVEWQWNGQPAENYKNTQPIMDTDGSYFVYSKLNVQKSNWEAGNTFTCSVLHEGLHNHHTEKSLSHSPGK light: not shown
6.22 nM | 33.8 fold vs H237-mIgG1/MRAL-k0 | 445 nM | 0.6 fold vs H237-mIgG1/MRAL-k0 | H237-MB829/MRAL-k0 (antibody, mouse IgG1, kappa, copies: 2 + 2) heavy: QVQLQESGPGLVKPSETLSLTCAVSGHSISHDHAWSWVRQPPGEGLEWIGFISYSGITNYNPSLQGRVTISRDNSKNTLYLQMNSLRAEDTAVYYCARSLARTTAMDYWGEGTLVTVSSAKTTPPSVYPLAPGSAAQTNSMVTLGCLVKGYFPEPVTVTWNSGSLSSGVHTFPAVLQSDLYTLSSSVTVPSSTWPSETVTCNVAHPASSTKVDKKIVPRDCGCKPCICEPNEVELVFIFPPKPKDVLTITLTPKVTCVVVDISKDDPEVQFSWFVDDVEVHTAQTQPREEQFNSTFRSVSELPIMHQDWLNGKEFKCRVNSAGFPAPIERTISKTKGRPKAPQVYTIPPPKEQMAKDKVSLTCMITDFFPEDITVEWQWNGQPAENYKNTQPIMDTDGSYFVYSKLNVQKSNWEAGNTFTCSVLHEGLHNHHTEKSLSHSPGK light: not shown
12.4 nM | 17 fold vs H237-mIgG1/MRAL-k0 | 976 nM | 0.3 fold vs H237-mIgG1/MRAL-k0 | H237-MB834/MRAL-k0 (antibody, mouse IgG1, kappa, copies: 2 + 2) heavy: QVQLQESGPGLVKPSETLSLTCAVSGHSISHDHAWSWVRQPPGEGLEWIGFISYSGITNYNPSLQGRVTISRDNSKNTLYLQMNSLRAEDTAVYYCARSLARTTAMDYWGEGTLVTVSSAKTTPPSVYPLAPGSAAQTNSMVTLGCLVKGYFPEPVTVTWNSGSLSSGVHTFPAVLQSDLYTLSSSVTVPSSTWPSETVTCNVAHPASSTKVDKKIVPRDCGCKPCICEPNEVELVFIFPPKPKDVLTITLTPKVTCVVVDISKDDPEVQFSWFVDDVEVHTAQTQPREEQFNSTFRSVSELPIMHQDWLNGKEFKCRVNSAAFPAPIYRTISKTKGRPKAPQVYTIPPPKEQMAKDKVSLTCMITDFFPEDITVEWQWNGQPAENYKNTQPIMDTDGSYFVYSKLNVQKSNWEAGNTFTCSVLHEGLHNHHTEKSLSHSPGK light: not shown
8 nM | 26.3 fold vs H237-mIgG1/MRAL-k0 | 401 nM | 0.7 fold vs H237-mIgG1/MRAL-k0 | H237-MB835/MRAL-k0 (antibody, mouse IgG1, kappa, copies: 2 + 2) heavy: QVQLQESGPGLVKPSETLSLTCAVSGHSISHDHAWSWVRQPPGEGLEWIGFISYSGITNYNPSLQGRVTISRDNSKNTLYLQMNSLRAEDTAVYYCARSLARTTAMDYWGEGTLVTVSSAKTTPPSVYPLAPGSAAQTNSMVTLGCLVKGYFPEPVTVTWNSGSLSSGVHTFPAVLQSDLYTLSSSVTVPSSTWPSETVTCNVAHPASSTKVDKKIVPRDCGCKPCICEPNEVELVFIFPPKPKDVLTITLTPKVTCVVVDISDDDPEVQFSWFVDDVEVHTAQTQPREEQFNSTFRSVSELPIMHQDWLNGKEFKCRVNSAAFPAPIEKTISKTKGRPKAPQVYTIPPPKEQMAKDKVSLTCMITDFFPEDITVEWQWNGQPAENYKNTQPIMDTDGSYFVYSKLNVQKSNWEAGNTFTCSVLHEGLHNHHTEKSLSHSPGK light: not shown
9.4 nM | 22.3 fold vs H237-mIgG1/MRAL-k0 | 716 nM | 0.4 fold vs H237-mIgG1/MRAL-k0 | H237-MB831/MRAL-k0 (antibody, mouse IgG1, kappa, copies: 2 + 2) heavy: QVQLQESGPGLVKPSETLSLTCAVSGHSISHDHAWSWVRQPPGEGLEWIGFISYSGITNYNPSLQGRVTISRDNSKNTLYLQMNSLRAEDTAVYYCARSLARTTAMDYWGEGTLVTVSSAKTTPPSVYPLAPGSAAQTNSMVTLGCLVKGYFPEPVTVTWNSGSLSSGVHTFPAVLQSDLYTLSSSVTVPSSTWPSETVTCNVAHPASSTKVDKKIVPRDCGCKPCICEPNEVELVFIFPPKPKDVLTITLTPKVTCVVVDISKDDPEVQFSWFVDDVEVHTAQTQPREEQFNSTFRSVSELPIMHQDWLNGKEFKCRVNSAAFPAFIERTISKTKGRPKAPQVYTIPPPKEQMAKDKVSLTCMITDFFPEDITVEWQWNGQPAENYKNTQPIMDTDGSYFVYSKLNVQKSNWEAGNTFTCSVLHEGLHNHHTEKSLSHSPGK light: not shown
